Measured values as given in US20190192484A1 (UNIVERSITY OF CHICAGO, published 2019).

Target: Vimentin (endogenous, WT fibroblasts) (mouse, UniProt P20152 2-466)
Experiment: proximity ligation assay in WT fibroblasts with anti-BAD and anti-Vimentin (FIG. 8F)

Vimentin (endogenous, WT fibroblasts), sequence (P20152 2-466 limits assumed): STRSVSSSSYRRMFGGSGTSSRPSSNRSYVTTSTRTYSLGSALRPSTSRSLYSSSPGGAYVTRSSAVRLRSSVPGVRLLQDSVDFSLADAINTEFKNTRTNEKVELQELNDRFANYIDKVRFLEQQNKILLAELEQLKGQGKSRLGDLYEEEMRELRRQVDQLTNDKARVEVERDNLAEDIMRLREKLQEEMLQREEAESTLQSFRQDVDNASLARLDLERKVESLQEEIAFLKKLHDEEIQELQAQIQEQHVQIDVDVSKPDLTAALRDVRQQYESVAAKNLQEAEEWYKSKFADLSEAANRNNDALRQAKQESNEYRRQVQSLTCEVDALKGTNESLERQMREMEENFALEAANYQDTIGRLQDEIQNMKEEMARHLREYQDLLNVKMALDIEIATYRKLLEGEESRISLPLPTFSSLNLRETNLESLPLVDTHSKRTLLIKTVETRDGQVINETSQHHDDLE

B1: BCL-2-associated death promoter (BAD), endogenous in WT fibroblasts (other, mouse, UniProt Q61337 1-204, looked up)
chain: MGTPKQPSLAPAHALGLRKSDPGIRSLGSDAGGRRWRPAAQSMFQIPEFEPSEQEDASATDRGLGPSLTEDQPGPYLAPGLLGSNIHQQGRAATNSHHGGAGAMETRSRHSSYPAGTEEDEGMEEELSPFRGRSRSAPPNLWAAQRYGRELRRMSDEFEGSFKGLPRPKSAGTATQMRQSAGWTRIIQSWWDRNLGKGGSTPSQ
notes: Endogenous protein inside fixed cells (microscopy, proximity ligation assay); also called WT BAD
binding result: no binding
